Test results as given in paper PMC2531280.

Substrate: NCCc1c[nH]cn1
Assay: purified protein
Format: biochemical, Pimelobacter simplex

B1: histamine dehydrogenase (HADH) (Pimelobacter simplex) (protein)
chain: MTEQPAVAAPYDVLFEPVQIGPFTTKNRFYQVPHCNGMGYRDPSAQASMRKIKAEGGWSAVCTEQVEIHATSDIAPFIELRIWDDQDLPALKRIADAIHEGGGLAGIELAHNGMNAPNQLSRETPLGPGHLPVAPDTIAPIQARAMTKQDIDDLRRWHRNAVRRSIEAGYDIVYVYGAHGYSGVHHFLSKRYNQRTDEYGGSLENRMRLLRELLEDTLDECAGRAAVACRITVEEEIDGGITREDIEGVLRELGELPDLWDFAMGSWEGDSVTSRFAPEGRQEEFVAGLKKLTTKPVVGVGRFTSPDAMVRQIKAGILDLIGAARPSIADPFLPNKIRDGRLNLIRECIGCNICVSGDLTMSPIRCTQNPSMGEEWRRGWHPERIRAKESDARVLVVGAGPSGLEAARALGVRGYDVVLAEAGRDLGGRVTQESALPGLSAWGRVKEYREAVLAELPNVEIYRESPMTGDDIVEFGFEHVITATGATWRTDGVARFHTTALPIAEGMQVLGPDDLFAGRLPDGKKVVVYDDDHYYLGGVVAELLAQKGYEVSIVTPGAQVSSWTNNTFEVNRIQRRLIENGVARVTDHAVVAVGAGGVTVRDTYASIERELECDTVVMVTARLPREELYLDLVARRDAGEIASVRGIGDAWAPGTIAAAVWSGRRAAEEFDAVLPSNDEVPFRREVTQLA
Km: 24 µM
kcat: 9.8 s⁻¹
